Here are results for three substances from article PMC4425475.

The target in experiment [1] is S-layer isolated from S. acidocaldarius strain MW001 (WT) (S. acidocaldarius (endogenous in MW001)) (UniProt Q4J6E5). The experiment in a line: co-sedimentation.
Experiment [2] concerns the target sFlaF (soluble FlaF, Δ34FlaF, residues 35-164 with an N-terminal His-tag) (S. acidocaldarius). The experiment in a line: SAXS.
Experiment [3] addresses sFlaF-L101Y (S. acidocaldarius). The experiment is described as follows: SEC.
The target of experiment [4] is sFlaF-R161A (S. acidocaldarius). The experiment in a line: SEC.

A word on the stoichiometry N: it is the number of molecules, sites or subunits per partner or assembly.

“sFlaF (soluble FlaF, Δ34FlaF, residues 35-164 with an N-terminal His-tag) (domain or fragment)”: in experiment [1], the percent bound is 50%. In experiment [2], this substance displayed a stoichiometry N of 2.
For sFlaF-L101Y (domain or fragment), the stoichiometry N in experiment [3] came to 2.
With sFlaF-R161A (domain or fragment), the stoichiometry N in experiment [4] was found to be 2.
